The values that follow come from article PMC12484072.

A word on the stoichiometry N: it is a count of units in the complex or per binding partner.

This assay has as its target SaNsrP, transmembrane permease of the BceAB-type ABC transporter SaNsrFP from Streptococcus agalactiae (S. agalactiae). The assay is described as follows: SAXS.

“SaNsrF, nucleotide-binding domain of the BceAB-type ABC transporter SaNsrFP from Streptococcus agalactiae (natural protein)” showed a stoichiometry N of 2.
